Our source for the FRET efficiency from the modulation lifetime (E τM) and FRET efficiency from the phase lifetime (E τϕ) values is paper PMC3219669.

Experiment [1] deals with Gβ1 and YFP-Gγ2 expressed from the Gβ1-2A-YFP-Gγ2 unit. In words: FRET or BRET; FLIM of the mTurquoise donor (phase and modulation lifetimes) in living HeLa cells, room temperature; all three subunits from the single plasmid Gα-IRES-Gβ-2A-Gγ. (In general: In BRET a luciferase serves as donor, and the signal depends on an acceptor being close.)
Experiment [2] has the same target. Briefly: FRET or BRET; FLIM of the mTurquoise donor (phase and modulation lifetimes) in living HeLa cells, room temperature; all three subunits from the single plasmid Gβ-2A-Gγ-IRES-Gα.

In experiment [1], “Gαq-mTurquoiseΔ6 (from UniProt P50148 1-359) (natural protein)” showed an FRET efficiency from the modulation lifetime (E τM) of 7% and an FRET efficiency from the phase lifetime (E τϕ) of 14%. Also, in experiment [2], the FRET efficiency from the modulation lifetime (E τM) is 19% and the FRET efficiency from the phase lifetime (E τϕ) amounted to 27%.
